Target: HIV gp120 monomer of strain CN97001 (HIV-1, strain CN97001 (paper: clade C); …, UniProt G4XFJ5, strain)
Experiment: BLI

B1: recombinant bnAb 10-1074 (from pTT3 10-1074 NHP-IgG) (antibody, V domains shown)
VH: QVQLQESGPGLVKPSETLSVTCSVSGDSMNNYYWTWIRQSPGKGLEWIGYISDRESATYNPSLNSRVVISRDTSKNQLSLKLNSVTPADTAVYYCATARRGQRIYGVVSFGEFFYYYSMDVWGKGTTVTVSS
VL: LSVALGETARISCGRQALGSRAVQWYQHRPGQAPILLIYNNQDRPSGIPERFSGTPDINFGTRATLTISGVEAGDEADYYCHMWDSRSGFSWSFGGATRLTVL
Question: Does B1 bind?
Answer: binds

From doi:10.1101/2025.05.02.651933 (bioRxiv, 2025)
